This series concerns the molecule itself. In words: cross-linking.

A value given as a limit tells only on which side of the number the result lay.

Broadly, the stoichiometry N is the number of molecules, sites or subunits per partner or assembly.

B1: B.subtilis RecU Holliday-junction resolvase (enzyme, B. subtilis, UniProt P39792 1-206, looked up)
chain: MIRYPNGKTFQPKHSVSSQNSQKRAPSYSNRGMTLEDDLNETNKYYLTNQIAVIHKKPTPVQIVNVHYPKRSAAVIKEAYFKQSSTTDYNGIYKGRYIDFEAKETKNKTSFPLQNFHDHQIEHMKQVKAQDGICFVIISAFDQVYFLEADKLFYFWDRKEKNGRKSIRKDELEETAYPISLGYAPRIDYISIIEQLYFSPSSGAKG
Consider B1, for which the “stoichiometry N” value is 2.

B2: Bacillus subtilis LrpC (natural protein, B. subtilis, UniProt P96582 1-144, looked up)
chain: MKLDQIDLNIIEELKKDSRLSMRELGRKIKLSPPSVTERVRQLESFGIIKQYTLEVDQKKLGLPVSCIVEATVKNADYERFKSYIQTLPNIEFCYRIAGAACYMLKINAESLEAVEDFINKTSPYAQTVTHVIFSEIDTKNGRG
On to B2, for which the “stoichiometry N” value is not below 2.
